Laboratory results reported in publication PMC8479633.

Experiments:
[1] = target: wild type full-length SMAD2 (S2FLWT), Q15796; assay: SAXS with ensemble optimisation; conditions: remark: other sources report otherwise
[2] = target: wild type full-length SMAD2 (S2FLWT), Q15796; assay: SAXS with ensemble optimisation; conditions: remark: other sources report otherwise; remark: listed apart in the source

percent of the population as trimer [1]: 16.4%
percent of the population as dimer [2]: 18%
percent of the population as trimer [2]: 1%
B1: wild type full-length SMAD2 (S2FLWT), Q15796 1-467 (natural protein)
chain: MSSILPFTPPVVKRLLGWKKSAGGSGGAGGGEQNGQEEKWCEKAVKSLVKKLKKTGRLDELEKAITTQNCNTKCVTIPSTCSEIWGLSTPNTIDQWDTTGLYSFSEQTRSLDGRLQVSHRKGLPHVIYCRLWRWPDLHSHHELKAIENCEYAFNLKKDEVCVNPYHYQRVETPVLPPVLVPRHTEILTELPPLDDYTHSIPENTNFPAGIEPQSNYIPETPPPGYISEDGETSDQQLNQSMDTGSPAELSPTTLSPVNHSLDLQPVTYSEPAFWCSIAYYELNQRVGETFHASQPSLTVDGFTDPSNSERFCLGLLSNVNRNATVEMTRRHIGRGVRLYYIGGEVFAECLSDSAIFVQSPNCNQRYGWHPATVCKIPPGCNLKIFNNQEFAALLAQSVNQGFEAVYQLTRMCTIRMSFVKGWGAEYRRQTVTSTPCWIELHLNGPLQWLDKVLTQMGSPSVRCSSMS
